Laboratory results taken from US20210395361A1 (Alector, published 2021).

T1: human Siglec-5 (human, UniProt O15389 17-551)
T1 construct: also called CHO-S5; CHO-S hSiglec-5
T1 sequence: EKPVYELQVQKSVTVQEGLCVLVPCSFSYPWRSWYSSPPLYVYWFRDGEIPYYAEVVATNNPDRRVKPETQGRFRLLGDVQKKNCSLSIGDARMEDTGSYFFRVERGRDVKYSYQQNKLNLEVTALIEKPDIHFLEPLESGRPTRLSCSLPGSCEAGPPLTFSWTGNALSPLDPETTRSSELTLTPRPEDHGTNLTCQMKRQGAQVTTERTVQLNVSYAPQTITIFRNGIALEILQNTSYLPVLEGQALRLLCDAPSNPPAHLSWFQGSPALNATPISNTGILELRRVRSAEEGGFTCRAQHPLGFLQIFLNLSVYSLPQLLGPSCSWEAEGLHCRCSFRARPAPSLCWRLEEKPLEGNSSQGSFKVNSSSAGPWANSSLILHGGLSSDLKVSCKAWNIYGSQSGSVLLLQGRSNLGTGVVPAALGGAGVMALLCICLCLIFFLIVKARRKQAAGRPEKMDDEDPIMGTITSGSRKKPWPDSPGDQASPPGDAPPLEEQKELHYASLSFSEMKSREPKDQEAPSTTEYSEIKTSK

T2: human Siglec-14 (human, UniProt Q08ET2 17-396)
T2 construct: also called CHO-S14; CHO-S hSiglec-14
T2 sequence: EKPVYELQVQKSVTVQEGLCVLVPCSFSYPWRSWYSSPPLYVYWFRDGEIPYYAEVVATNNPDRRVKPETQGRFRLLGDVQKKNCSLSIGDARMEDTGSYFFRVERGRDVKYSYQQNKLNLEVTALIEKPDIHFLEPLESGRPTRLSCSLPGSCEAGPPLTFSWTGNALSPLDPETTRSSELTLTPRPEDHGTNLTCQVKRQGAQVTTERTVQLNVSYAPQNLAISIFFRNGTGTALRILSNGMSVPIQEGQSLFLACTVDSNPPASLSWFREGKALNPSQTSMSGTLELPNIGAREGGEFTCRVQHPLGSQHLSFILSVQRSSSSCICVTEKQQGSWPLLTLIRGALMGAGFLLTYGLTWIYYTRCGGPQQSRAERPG

T3: Histidine-tagged human Siglec-5 (NovoProtein) (human, UniProt O15389 17-434, limits assumed)
T3 construct: Bought soluble protein; also called His-tagged human Siglec-5; not shown: histidine tag
T3 sequence: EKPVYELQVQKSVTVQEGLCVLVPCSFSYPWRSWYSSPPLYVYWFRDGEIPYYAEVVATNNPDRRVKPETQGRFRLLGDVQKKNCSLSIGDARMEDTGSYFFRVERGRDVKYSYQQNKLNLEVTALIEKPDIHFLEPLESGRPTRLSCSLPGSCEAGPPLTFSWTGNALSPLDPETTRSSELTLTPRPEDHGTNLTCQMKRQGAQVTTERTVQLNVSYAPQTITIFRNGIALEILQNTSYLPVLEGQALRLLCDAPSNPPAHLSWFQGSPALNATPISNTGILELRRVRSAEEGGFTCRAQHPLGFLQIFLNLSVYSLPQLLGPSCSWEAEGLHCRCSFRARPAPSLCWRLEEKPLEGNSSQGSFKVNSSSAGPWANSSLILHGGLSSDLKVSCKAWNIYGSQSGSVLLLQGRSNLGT


What was measured:
[1] = molecular target: T1, human Siglec-5; experiment: FACS titration, CHO-S hSiglec-5 cells, anti-human IgG secondary; y-axis Fold over isotype, x-axis Antibody (nM), log scale
Experimental: (§1) CHO cells were incubated with increasing concentrations of anti-Siglec-5 antibody, as indicated on the x-axis of each plot. The binding of anti-Siglec-5 antibodies to the surface of CHO cells was then measured by FACS. The y-axis provides the binding of each indicated anti-Siglec-5 antibody to the surface of CHO cells relative to hIgG1 isotype control antibodies. S5-174-H2L1 refers to antibody S5-174-H3; S5-174-H3L1 refers to antibody S5-174-H5; S5-174-H3L2 refers to antibody S5-174-H6; S5-174-H4L1 refers to antibody S5-174-H7; S5-174-H4L2 refers to antibody S5-174-H8; S5-G03-H2L1 refers to antibody S5-G-03-H4; S5-G03-H2L2 refers to antibody S5-G-03-H5; S5-G03-H3L1 refers to antibody S5-G-03-H7; S5-G03-H3L2 refers to antibody S5-G-03-H8; and S5-G03-H3L3 refers to antibody S5-G-03-H9.
(§2) Various anti-Siglec-5 antibodies of the present disclosure were evaluated for their ability to bind to CHO cells which were stably transfected with human Siglec-5 (CHO-S5) or human Siglec-14 (CHO-S14). Cells were incubated with various dilutions of anti-Siglec-5 antibodies for 30 minutes on ice in the dark, followed by a 30-minute incubation with a fluorescently conjugated anti-human IgG secondary antibody. Cells were then washed twice in FACS buffer (PBS+2% FBS, 2 mM EDTA), and flow cytometry was performed on a BD FACS Canto. Data were analyzed using FlowJo software (Ashland, Oreg.). In FIG. 9, hIgG1 refers to isotype control antibodies; S5-174-H2L1 refers to antibody S5-174-H3; S5-174-H3L1 refers to antibody S5-174-H5; S5-174-H3L2 refers to antibody S5-174-H6; S5-174-H4L1 refers to antibody S5-174-H7; S5-174-H4L2 refers to antibody S5-174-H8; S5-G03-H2L1 refers to antibody S5-G-03-H4; S5-G03-H2L2 refers to antibody S5-G-03-H5; S5-G03-H3L1 refers to antibody S5-G-03-H7; S5-G03-H3L2 refers to antibody S5-G-03-H8; and S5-G03-H3L3 refers to antibody S5-G-03-H9.

[2] = molecular target: T2, human Siglec-14; experiment: FACS titration, CHO-S hSiglec-14 cells, anti-human IgG secondary; y-axis Fold over isotype, x-axis Antibody (nM), log scale; the same flat line on CHO-S Parental cells
Experimental: as §1, §2

[3] = molecular target: T3, Histidine-tagged human Siglec-5 …; experiment: array SPR, antibody immobilized, His-tagged human Siglec-5 (0-500 nM) in solution; apparent affinity
Experimental: The apparent binding affinities of the anti-Siglec-5 antibodies were measured by array surface plasmon resonance (SPR), according to standard techniques (Abdiche, et al. (2016) MAbs 8:264-277). Briefly, anti-Siglec-5 antibodies were immobilized on a HC 30M chip at four different densities, at antibody concentration of 10 μg/mL, 2.5 μg/mL, 0.63 μg/mL, and 0.16 μg/mL. Varying concentrations (0-500 nM) of Histidine-tagged human Siglec-5 or cynomolgus Siglec-5 (NovoProtein) were then bound to the captured anti-Siglec-5 surface (5 min injection time, 15 min dissociation time) in HBS-EP⁺/1 mg/mL BSA running buffer. Kinetic analysis was performed using Carterra software to extract association and dissociation rate constants (kₐ and kd, respectively) for each antibody. Apparent affinity constants (KD) were calculated from the ratio kd/kₐ. None of the anti-Siglec-5 antibodies bound to cynomolgus Siglec-5 protein.

Row | Binder | binding result [1] | binding result [2] | Kd [3] [nM] | koff [3] [s⁻¹] | kon [3] [M⁻¹ s⁻¹]
1 | S5-174-H5 (antibody, V domains shown, Humanized variant of S5-174; also called S5-174-H3L1) VH: QVQLVQSGAEVKKPGSSVKLSCKASGYTFTNYWMHWVRQAPGQGLEWVGEIDPSDGYVTYAQKFQGRATLTVDKSTSTAYMELSSLRSEDTAVYYCAGVYYGNSIYYAMDYWGQGTLVTVSS VL: DIQMTQSPSSLSASVGDRVTITCRASQDVGTAVAWYQQKPGKAPKLLIYWTSTRHTGVPSRFSGSGSGTDFTLTISSLQPEDFATYYCQQYRSYPFTFGQGTKLEIK | binds | no binding (tested: last point between 1 and 10 nM) | – | – | –
2 | S5-174-H3 (antibody, V domains shown, Humanized variant of S5-174; also called S5-174-H2L1) VH: QVQLVQSGAEVKKPGSSVKVSCKASGYTFTNYWMHWVRQAPGQGLEWMGEIDPSDGYVTYAQKFQGRVTITVDKSTSTAYMELSSLRSEDTAVYYCAGVYYGNSIYYAMDYWGQGTLVTVSS VL: DIQMTQSPSSLSASVGDRVTITCRASQDVGTAVAWYQQKPGKAPKLLIYWTSTRHTGVPSRFSGSGSGTDFTLTISSLQPEDFATYYCQQYRSYPFTFGQGTKLEIK | binds | no binding (tested: last point between 1 and 10 nM) | – | – | –
3 | S5-174-H6 (antibody, V domains shown, Humanized variant of S5-174; also called S5-174-H3L2) VH: QVQLVQSGAEVKKPGSSVKLSCKASGYTFTNYWMHWVRQAPGQGLEWVGEIDPSDGYVTYAQKFQGRATLTVDKSTSTAYMELSSLRSEDTAVYYCAGVYYGNSIYYAMDYWGQGTLVTVSS VL: DIQMTQSPSSLSTSVGDRVTITCRASQDVGTAVAWYQQKPGKAPKLLIYWTSTRHTGVPSRFSGSGSGTDFTLTISSVQPEDLATYYCQQYRSYPFTFGQGTKLEIK | binds | no binding (tested: last point between 1 and 10 nM) | – | – | –
4 | S5-174-H7 (antibody, V domains shown, Humanized variant of S5-174; also called S5-174-H4L1) VH: QVQLVQSGAEVKKPGSSVKLSCKASGYTFTNYWMHWVRQAPGQGLEWVGEIDPSDGYVTYAQKFQGRATLTVDRSTSTAYMELSSLRSEDTAVYYCAGVYYGNSIYYAMDYWGQGTLVTVSS VL: DIQMTQSPSSLSASVGDRVTITCRASQDVGTAVAWYQQKPGKAPKLLIYWTSTRHTGVPSRFSGSGSGTDFTLTISSLQPEDFATYYCQQYRSYPFTFGQGTKLEIK | binds | no binding (tested: last point between 1 and 10 nM) | – | – | –
5 | S5-174-H8 (antibody, V domains shown, Humanized variant of S5-174; also called S5-174-H4L2) VH: QVQLVQSGAEVKKPGSSVKLSCKASGYTFTNYWMHWVRQAPGQGLEWVGEIDPSDGYVTYAQKFQGRATLTVDRSTSTAYMELSSLRSEDTAVYYCAGVYYGNSIYYAMDYWGQGTLVTVSS VL: DIQMTQSPSSLSTSVGDRVTITCRASQDVGTAVAWYQQKPGKAPKLLIYWTSTRHTGVPSRFSGSGSGTDFTLTISSVQPEDLATYYCQQYRSYPFTFGQGTKLEIK | binds | no binding (tested: last point between 1 and 10 nM) | – | – | –
6 | S5-G-03-H8 (antibody, V domains shown, Humanized variant of S5-G-03; also called S5-G03-H3L2; SG-5-03-H8) VH: EVQLLQSGGGLVQPGGSLRLSCAASGFTFSTYGMSWVRQAPGKGLELVATINSNGDNTYYADSVKGRFTISRDNSKNTLYLQMNSLRAEDTAVYYCARAWPSITTVFAPYTLDYWGQGTLVTVSS VL: DIQMTQSPSSLSASVGDRVTITCRASSSVSSSFLHWYQQKPGKAPKLWIYSTSNLASGVPSRFSGSGSGTDYTLTISSLQPEDFATYYCQQYSGYPLTFGQGTKLEIK | binds | no binding (tested: last point between 1 and 10 nM) | – | – | –
7 | S5-G-03-H4 (antibody, V domains shown, Humanized variant of S5-G-03; also called S5-G03-H2L1) VH: EVQLLESGGGLVQPGGSLRLSCAASGFTFSTYGMSWVRQAPGKGLELVATINSNGDNTYYADSVKGRFTISRDNSKNTLYLQMNSLRAEDTAVYYCARAWPSITTVFAPYTLDYWGQGTLVTVSS VL: DIQMTQSPSSLSASVGDRVTITCRASSSVSSSFLHWYQQKPGKAPKLLIYSTSNLASGVPSRFSGSGSGTDFTLTISSLQPEDFATYYCQQYSGYPLTFGQGTKLEIK | binds | no binding (tested: last point between 1 and 10 nM) | – | – | –
8 | S5-G-03-H5 (antibody, V domains shown, Humanized variant of S5-G-03; also called S5-G03-H2L2; SG-5-03-H5) VH: EVQLLESGGGLVQPGGSLRLSCAASGFTFSTYGMSWVRQAPGKGLELVATINSNGDNTYYADSVKGRFTISRDNSKNTLYLQMNSLRAEDTAVYYCARAWPSITTVFAPYTLDYWGQGTLVTVSS VL: DIQMTQSPSSLSASVGDRVTITCRASSSVSSSFLHWYQQKPGKAPKLWIYSTSNLASGVPSRFSGSGSGTDYTLTISSLQPEDFATYYCQQYSGYPLTFGQGTKLEIK | binds | no binding (tested: last point between 1 and 10 nM) | – | – | –
9 | S5-G-03-H7 (antibody, V domains shown, Humanized variant of S5-G-03; also called S5-G03-H3L1) VH: EVQLLQSGGGLVQPGGSLRLSCAASGFTFSTYGMSWVRQAPGKGLELVATINSNGDNTYYADSVKGRFTISRDNSKNTLYLQMNSLRAEDTAVYYCARAWPSITTVFAPYTLDYWGQGTLVTVSS VL: DIQMTQSPSSLSASVGDRVTITCRASSSVSSSFLHWYQQKPGKAPKLLIYSTSNLASGVPSRFSGSGSGTDFTLTISSLQPEDFATYYCQQYSGYPLTFGQGTKLEIK | binds | no binding (tested: last point between 1 and 10 nM) | – | – | –
10 | S5-G-03 (antibody, V domains shown, Mouse-derived variable domains; expressed in mammalian cells as full antibody; hIgG1 isotype control; also called SG-5-03) VH: QAYLQQSGGGLVQPGQSLKLSCAASGFTFSTYGMSWVRQTPDKRLELVATINSNGDNTYYPDSVKGRFTISRDNANNTLYLQMSSLKSEDTAMYFCARAWPSITTVFAPYTLDYWGQGTSVTVSS VL: DIVLTQSPAIMSASPGEKVTMTCRASSSVSSSFLHWYQQKSGASPKLWIYSTSNLASGVPTRFSGSGSGTSYSLSISSVEAEDTATYFCQQYSGYPLTFGGGTKLEIK | – | no binding (tested: last point between 1 and 10 nM) | 7.1 | 0.0001 | 14000
